Biological target: 抗原(bs-0107P)
Assay: indirect ELISA, antigen bs-0107P coated at 2 μg/ml (0.2 μg/well), purified antibody in serial dilution, HRP goat anti-mouse IgG, OD450

抗原(bs-0107P), sequence (P05067 672-713): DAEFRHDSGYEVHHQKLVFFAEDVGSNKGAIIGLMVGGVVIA

B1: 抗β-淀粉样蛋白单克隆抗体7D10-1E6 (antibody, V domains shown)
VH: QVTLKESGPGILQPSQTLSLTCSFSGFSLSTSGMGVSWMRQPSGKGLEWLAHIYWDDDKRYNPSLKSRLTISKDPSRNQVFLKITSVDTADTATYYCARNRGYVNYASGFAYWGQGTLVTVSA
VL: DVLMTQTPLSLPVSLGDQASISCRSSQSIVHSNGNTYLEWYLQKPGQSPKLLIYKVSNRFSGVPDRFSGSGSGTDFILKINRVEAEDLGVYYCFQGSHVPLTFGAGTKLELK
  EC50: 0.0237 nM

— patent CN114605532A (BEIJING FIRST BIOCHEMICAL PHARMACEUTICAL LTD COMPANY, dated 2022)
